± gives the standard deviation of the averaged measurements.
How the values were obtained:
[1] = tested on: Saccharomyces cerevisiae; experiment: protein stability index of tFT-peptide fusion (C-terminal peptide) (PSI (0-1 scale)); higher = more stable (slower turnover)
Procedure: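 MPS profiling in S. cerevisiae of the tFT-X12 degron library: putative degron peptides plus stable controls, 12 aa, fused to the C-terminus of a sfGFP-mCherry timer. Cells are FACS-sorted into 8 mCherry/sfGFP bins and deep-sequenced. PSI runs from 0 (unstable) to 1 (stable). Backgrounds are wild type, das1Δ and doa10Δ at 30 °C, and wild type, das1Δ, cdc34-1 and cdc53-1 at 37 °C; 2-3 technical replicates each.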

[2] = tested on: Saccharomyces cerevisiae; experiment: as above; details: genetic background: wild type; temperature: 30 C
[3] = genetic background: cdc34-1, temperature: 37 C
[4] = genetic background: cdc53-1, temperature: 37 C
[5] = genetic background: das1 deletion, temperature: 30 C
[6] = genetic background: das1 deletion, temperature: 37 C
[7] = genetic background: doa10 deletion, temperature: 30 C
[8] = genetic background: wild type, temperature: 30 C
[9] = genetic background: wild type, temperature: 37 C
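Further: PSI is a weighted mean of sequencing reads over stability bins, variants kept only with over 10 reads, mCherry proximal and sfGFP distal, peptide attached via GGGS linker.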

Sequence: ASLSSSRPPLLP
- protein stability index [1, 3]: 0.685 ± 0.053
- protein stability index [1, 4]: 0.752 ± 0.02
- protein stability index [1, 5]: 0.658 ± 0.025
- protein stability index [1, 6]: 0.7114 ± 0.0024
- protein stability index [1, 7]: 0.644 ± 0.02
- protein stability index [1, 8]: 0.648 ± 0.014
- protein stability index [1, 9]: 0.6962 ± 0.0011
- protein stability index [2]: 0.746 ± 0.051

Sequence: GSLFANYNLKLF
- protein stability index [1, 3]: 0.62289 ± 0.00034
- protein stability index [1, 4]: 0.724 ± 0.017
- protein stability index [1, 5]: 0.648 ± 0.06
- protein stability index [1, 6]: 0.771 ± 0.033
- protein stability index [1, 7]: 0.108 ± 0.017
- protein stability index [1, 8]: 0.106 ± 0.028
- protein stability index [1, 9]: 0.211 ± 0.013
- protein stability index [2]: 0.163 ± 0.025

Sequence: SFCSFVFVTFVL
- protein stability index [1, 3]: 0.4 ± 0.031
- protein stability index [1, 4]: 0.4842 ± 0.0023
- protein stability index [1, 5]: 0.321 ± 0.044
- protein stability index [1, 6]: 0.508 ± 0.022
- protein stability index [1, 7]: 0.317 ± 0.016
- protein stability index [1, 8]: 0.312 ± 0.02
- protein stability index [1, 9]: 0.52 ± 0.058
- protein stability index [2]: 0.455 ± 0.033

Sequence: MRLQLTFSILLF
- protein stability index [1, 3]: 0.353 ± 0.036
- protein stability index [1, 4]: 0.43 ± 0.034
- protein stability index [1, 5]: 0.378 ± 0.021
- protein stability index [1, 6]: 0.393 ± 0.0059
- protein stability index [1, 7]: 0.4027 ± 0.0029
- protein stability index [1, 8]: 0.37 ± 0.021
- protein stability index [1, 9]: 0.3598 ± 0.0024
- protein stability index [2]: 0.389 ± 0.019

Sequence: SGRFRFVLLGLV
- protein stability index [1, 3]: 0.558 ± 0.032
- protein stability index [1, 4]: 0.601 ± 0.008
- protein stability index [1, 5]: 0.455 ± 0.03
- protein stability index [1, 6]: 0.632 ± 0.00071
- protein stability index [1, 7]: 0.122 ± 0.023
- protein stability index [1, 8]: 0.156 ± 0.023
- protein stability index [1, 9]: 0.253 ± 0.0054
- protein stability index [2]: 0.203 ± 0.021

Sequence: GVGHAWHYFCVC
- protein stability index [1, 3]: 0.614 ± 0.044
- protein stability index [1, 4]: 0.7347 ± 0.0032
- protein stability index [1, 5]: 0.608 ± 0.018
- protein stability index [1, 6]: 0.74764 ± 0.00017
- protein stability index [1, 7]: 0.197 ± 0.017
- protein stability index [1, 8]: 0.247 ± 0.021
- protein stability index [1, 9]: 0.431 ± 0.0045
- protein stability index [2]: 0.357 ± 0.025

Sequence: GQFFRCWRRRLC
- protein stability index [1, 3]: 0.634 ± 0.044
- protein stability index [1, 4]: 0.709 ± 0.0072
- protein stability index [1, 5]: 0.649 ± 0.03
- protein stability index [1, 6]: 0.72 ± 0.022
- protein stability index [1, 7]: 0.145 ± 0.019
- protein stability index [1, 8]: 0.166 ± 0.028
- protein stability index [1, 9]: 0.443 ± 0.011
- protein stability index [2]: 0.171 ± 0.081

Sequence: NNQIQKKMYQTN
- protein stability index [1, 3]: 0.585 ± 0.022
- protein stability index [1, 4]: 0.778 ± 0.018
- protein stability index [1, 5]: 0.667 ± 0.019
- protein stability index [1, 6]: 0.737 ± 0.012
- protein stability index [1, 7]: 0.179 ± 0.025
- protein stability index [1, 8]: 0.198 ± 0.05
- protein stability index [1, 9]: 0.473 ± 0.051
- protein stability index [2]: 0.35 ± 0.022

Sequence: DLRGLGRFRISH
- protein stability index [1, 3]: 0.6886 ± 0.0067
- protein stability index [1, 4]: 0.741 ± 0.021
- protein stability index [1, 5]: 0.64 ± 0.031
- protein stability index [1, 6]: 0.7181 ± 0.0055
- protein stability index [1, 7]: 0.486 ± 0.0072
- protein stability index [1, 8]: 0.503 ± 0.024
- protein stability index [1, 9]: 0.677 ± 0.017
- protein stability index [2]: 0.572 ± 0.11

Sequence: RILKLPGHVNDV
- protein stability index [1, 3]: 0.6842 ± 0.0067
- protein stability index [1, 4]: 0.711 ± 0.031
- protein stability index [1, 5]: 0.654 ± 0.043
- protein stability index [1, 6]: 0.697 ± 0.026
- protein stability index [1, 7]: 0.652 ± 0.065
- protein stability index [1, 8]: 0.65 ± 0.027
- protein stability index [1, 9]: 0.69 ± 0.019
- protein stability index [2]: 0.7167 ± 0.005

Sequence: WCVRRVRFVMGC
- protein stability index [1, 3]: 0.414 ± 0.019
- protein stability index [1, 4]: 0.458 ± 0.05
- protein stability index [1, 5]: 0.316 ± 0.024
- protein stability index [1, 6]: 0.479 ± 0.0081
- protein stability index [1, 7]: 0.2183 ± 0.0013
- protein stability index [1, 8]: 0.234 ± 0.027
- protein stability index [1, 9]: 0.378 ± 0.013
- protein stability index [2]: 0.31 ± 0.0046

Sequence: DPTLLLYPLSPL
- protein stability index [1, 3]: 0.688 ± 0.018
- protein stability index [1, 4]: 0.765 ± 0.0076
- protein stability index [1, 5]: 0.654 ± 0.019
- protein stability index [1, 6]: 0.748 ± 0.014
- protein stability index [1, 7]: 0.667 ± 0.029
- protein stability index [1, 8]: 0.685 ± 0.035
- protein stability index [1, 9]: 0.72 ± 0.023
- protein stability index [2]: 0.57 ± 0.2

Sequence: SLRSRSLRCRLS
- protein stability index [1, 3]: 0.619 ± 0.056
- protein stability index [1, 4]: 0.755 ± 0.024
- protein stability index [1, 5]: 0.723 ± 0.0081
- protein stability index [1, 6]: 0.749 ± 0.031
- protein stability index [1, 7]: 0.288 ± 0.0071
- protein stability index [1, 8]: 0.297 ± 0.0095
- protein stability index [1, 9]: 0.489 ± 0.031
- protein stability index [2]: 0.38 ± 0.005

Sequence: DLVGRETRMRLN
- protein stability index [1, 3]: 0.6744 ± 0.0063
- protein stability index [1, 4]: 0.70449 ± 0.00037
- protein stability index [1, 5]: 0.633 ± 0.039
- protein stability index [1, 6]: 0.7221 ± 0.0045
- protein stability index [1, 7]: 0.202 ± 0.01
- protein stability index [1, 8]: 0.263 ± 0.022
- protein stability index [1, 9]: 0.526 ± 0.097
- protein stability index [2]: 0.383 ± 0.0088

Sequence: FSFEGVLVPLLV
- protein stability index [1, 3]: 0.31519 ± 3.7e-05
- protein stability index [1, 4]: 0.301 ± 0.043
- protein stability index [1, 5]: 0.288 ± 0.036
- protein stability index [1, 6]: 0.4113 ± 0.00044
- protein stability index [1, 7]: 0.249 ± 0.0058
- protein stability index [1, 8]: 0.287 ± 0.033
- protein stability index [1, 9]: 0.384 ± 0.0086
- protein stability index [2]: 0.396 ± 0.015

Sequence: RSFSKRSFMFLC
- protein stability index [1, 3]: 0.621 ± 0.025
- protein stability index [1, 4]: 0.728 ± 0.11
- protein stability index [1, 5]: 0.646 ± 0.018
- protein stability index [1, 6]: 0.734 ± 0.0094
- protein stability index [1, 7]: 0.154 ± 0.0079
- protein stability index [1, 8]: 0.172 ± 0.0087
- protein stability index [1, 9]: 0.227 ± 0.0064
- protein stability index [2]: 0.263 ± 0.012

Sequence: PLLSATLTRRLA
- protein stability index [1, 3]: 0.622 ± 0.041
- protein stability index [1, 4]: 0.665 ± 0.0088
- protein stability index [1, 5]: 0.684 ± 0.0075
- protein stability index [1, 6]: 0.692 ± 0.0072
- protein stability index [1, 7]: 0.162 ± 0.015
- protein stability index [1, 8]: 0.19 ± 0.03
- protein stability index [1, 9]: 0.386 ± 0.0044
- protein stability index [2]: 0.475 ± 0.024

Sequence: LSPPLRHRLTPP
- protein stability index [1, 3]: 0.675 ± 0.014
- protein stability index [1, 4]: 0.729 ± 0.022
- protein stability index [1, 5]: 0.687 ± 0.032
- protein stability index [1, 6]: 0.712 ± 0.029
- protein stability index [1, 7]: 0.67109 ± 0.00013
- protein stability index [1, 8]: 0.669 ± 0.015
- protein stability index [1, 9]: 0.6731 ± 0.0065
- protein stability index [2]: 0.715 ± 0.047

Sequence: TLPIWLRVLIFG
- protein stability index [1, 3]: 0.341 ± 0.066
- protein stability index [1, 4]: 0.342 ± 0.038
- protein stability index [1, 5]: 0.295 ± 0.026
- protein stability index [1, 6]: 0.456 ± 0.0082
- protein stability index [1, 7]: 0.2762 ± 0.002
- protein stability index [1, 8]: 0.29 ± 0.0033
- protein stability index [1, 9]: 0.426 ± 0.014
- protein stability index [2]: 0.404 ± 0.032

— the supplement of paper PMC10724198
